From article PMC3607736, “HAD hydrolase function unveiled by substrate screening: enzymatic characterization of Arabidopsis thaliana subclass I phosphosugar phosphatase AtSgpp” (Planta, 2012) come the findings set out here.

For orientation: Vmax means the top rate of the reaction or transport when substrate is in excess. One may read the kcat as the number of substrate molecules converted per active site and unit of time at saturation. For orientation: kcat/Km means the turnover number divided by the Michaelis constant.

Substrate in this data set: O=P(O)(O)OCC(O)CO
In words: inorganic phosphate release (Ames), non-linear regression. It is filed as biochemical, Arabidopsis thaliana. The conditions noted are these: 20 mM Tris-HCl pH 7.0, 5 mM MgCl2, 32 °C, apparent Km, MBP fusion. The source says:
inorganic phosphate release (Ames), non-linear regression on AtSgpp (MBP-AtSgpp, At2g38740)

B1: AtSgpp (MBP-AtSgpp, At2g38740) (Arabidopsis thaliana) (protein)
chain: MNGFSDLNPSESKPSLSQLAPLEAILFDVDGTLCDSDPIHLIAFQELLQEIGFNNGVPIDEKFFVENIAGKHNSEIALLLFPDDVSRGLKFCDEKEALYRKIVAEKIKPLDGLIKLTKWIEDRGLKRAAVTNAPKENAELMISKLGLTDFFQAVILGSECEFPKPHPGPYLKALEVLNVSKEHTLVFEDSISGIKAGVAAGMPVIGLTTGNPASLLMQAKPAFLIENYADPKLWAVLEELDNKS
notes: N-terminal MBP fusion (pMAL-c2X, Ile-Ser-Glu-Phe linker before Met1); E. coli TB1, amylose resin
Regarding B1, the Km result is “(7.3 ± 0.2) × 10^−3 M”, the maximum rate (Vmax) stood at 0.498 µmol/min, the kcat turned out to be 23 ± 3 s⁻¹ and the kcat/Km was 3100 M⁻¹ s⁻¹.
